Data as given in patent US7189506B1, “DNA binding compound-mediated molecular switch system” (Genelabs Technologies, Inc.).

Experiments:
[1] = system: UL9-VP16 chimeric activator (ULVP) (Herpes simplex virus type 1?); experiment: cell_activity; conditions: 25 ng pULVP, HeLa
[2] = system: UL9-KRAB chimeric repressor (ULKRAB) (Herpes simplex virus type 1?); experiment: cell_activity; conditions: 0.8 to 1 ug pULKRAB
p50 NF-κB = experiment: Gel mobility shift assay, displacement of p50 NF-kB; type: binding; conditions: JF102 oligonucleotide
Description: A purified Thioredoxin-p50 NF-kB fusion protein (p50C) (Genelabs Technologies, Inc.) was used to generate five oligonucleotides comprising an NF-kB DNA response element and one or two overlapping binding sites for the AT-rich binder, 21x.
The exemplified NF-kB binding sites, […] (SEQ ID NO:29) and […] (SEQ ID NO:30) are present in the Igk and IL-6 promoters, respectively.
Oligonucleotides JF101 (SEQ ID NO:31) and 102 (SEQ ID NO:32), have compound binding sequences overlapping the right side of the NF-kB DNA response element, while in the case of JF103 (SEQ ID NO:33), the overlaps are from both sides (FIG. 7).

LacR = conditions: modified LacR DNA response sequence SEQ ID NO:35
[3] = target: T1, GST-UL9 (UL9 C-terminal DNA-binding domain) (Herpes simplex virus type 1?, UniProt P10193 P10193:535-851); experiment: EMSA; 10 nM GST-UL9; 21x displacement most efficient with overlap at 3' end of site; conditions: tags: GST fusion, pGEX-UL9 (Genelabs); label: 32P
LacR (lac repressor) [4] = target: T2, LacR (lac repressor) (UniProt P03023 P03023:1-360); experiment: EMSA; displaced by 21x; conditions: chain copies: 4; label: 32P
LacR (lac repressor) [5] = target: T2, LacR (lac repressor); experiment: EMSA; displaced by 21x more efficiently than by IPTG; conditions: chain copies: 4; label: 32P
[6] = target: T1, GST-UL9 (UL9 C-terminal DNA-binding …); experiment: EMSA; 10 nM GST-UL9, 20 mM HEPES pH 7.5, 50 mM KCl, RT; displaced by 21x; conditions: tags: GST fusion, pGEX-UL9 (Genelabs); label: 32P

T1 sequence (P10193 535-851, one chain of several): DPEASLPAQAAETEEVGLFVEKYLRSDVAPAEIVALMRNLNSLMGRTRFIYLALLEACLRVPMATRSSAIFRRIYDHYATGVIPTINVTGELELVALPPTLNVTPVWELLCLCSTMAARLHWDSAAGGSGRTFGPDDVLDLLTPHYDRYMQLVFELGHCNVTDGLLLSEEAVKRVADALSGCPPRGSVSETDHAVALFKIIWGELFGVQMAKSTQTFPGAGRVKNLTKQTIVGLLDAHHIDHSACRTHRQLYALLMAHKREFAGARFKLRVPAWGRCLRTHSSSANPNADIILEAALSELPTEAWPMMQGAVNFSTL
T2 sequence (P03023 whole entry, one chain of several): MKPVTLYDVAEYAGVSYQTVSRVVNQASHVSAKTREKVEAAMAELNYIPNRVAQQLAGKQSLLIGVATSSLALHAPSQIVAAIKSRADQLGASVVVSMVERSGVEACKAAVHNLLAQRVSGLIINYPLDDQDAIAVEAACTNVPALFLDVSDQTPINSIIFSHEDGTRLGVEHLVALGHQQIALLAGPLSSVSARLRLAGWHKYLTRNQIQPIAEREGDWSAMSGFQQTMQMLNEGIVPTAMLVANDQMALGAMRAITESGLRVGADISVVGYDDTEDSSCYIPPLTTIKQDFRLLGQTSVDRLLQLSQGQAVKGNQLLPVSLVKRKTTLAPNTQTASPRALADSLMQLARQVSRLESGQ

Molecule: p5UL/p5ULE UL9-21x response element (5 tandem repeats)
- activity ([1]; p5UL): 24 fold
- activity ([2]; p5ULE, HeLa): 5 % of basal

Molecule: p5Gal/p5GalE GAL4 response element (5 tandem repeats)
- activity ([1]; p5Gal, not activated significantly): 2 fold
- activity ([2]; p5GalE control): 62 % of basal

Molecule: Cn1cc(NC(=O)c2cc(NC(=O)c3cc(NC=O)cn3C)cn2C)cc1C(=O)NCCC(=N)N [distamycin]
- NF-kB displacement efficiency, 21x versus distamycin (p50 NF-κB): 21x displaces NF-kB more efficiently than distamycin

Molecule: CC(C)S[C@@H]1O[C@H](CO)[C@H](O)[C@H](O)[C@H]1O [IPTG]
- LacR displacement efficiency, 21x versus IPTG (LacR): 21x appears to displace LacR more efficiently than IPTG

B1: YK 202RX (dsDNA)
DNA 1: CATGGACGCCACTGAGCCGTTTTTGTTCGCACTTTTTTTTGAGGCGAGTCGATGCACC
DNA 2: GGTGCATCGACTCGCCTCAAAAAAAAGTGCGAACAAAAACGGCTCAGTGGCGTCCATG
- binding result [3]: binds

B2: lacO modified (symmetric) (dsDNA)
DNA 1: AAAAAATTGTGAGCGCTCACAATTTTTT
DNA 2: AAAAAATTGTGAGCGCTCACAATTTTTT
- binding result (LacR (lac repressor) [4]): binds

B3: lacO modified (dsDNA)
DNA 1: TTTTTTTTGTGAGCGGATAACAAAA
DNA 2: TTTTGTTATCCGCTCACAAAAAAAA
- binding result (LacR (lac repressor) [5]): binds

B4: YK 202LX (dsDNA)
DNA 1: CATGGACGCCACTGAGCCGTTTTTGTTCGCACTTGAGGCGAGTCGATGCACC
DNA 2: GGTGCATCGACTCGCCTCAAGTGCGAACAAAAACGGCTCAGTGGCGTCCATG
- binding result [6]: binds

B5: YK 202RX-A (dsDNA)
DNA 1: CATGGACGCCACTGAGCCGTGTTCGCACTTTTTTTTGAGGCGAGTCGATGCACC
DNA 2: GGTGCATCGACTCGCCTCAAAAAAAAGTGCGAACACGGCTCAGTGGCGTCCATG
- binding result [3]: binds
